According to the nanobody polyreactivity screen of Harvey et al. (2022):

Assay: yeast display, Sf9 membrane polyspecificity reagent, FACS + sequencing; frameworks hold sequencing errors
Method in brief: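 In a synthetic yeast display library (Saccharomyces cerevisiae BJ5465), nanobody expression was induced with galactose for 36–48 hours. FACS gates were set low and high (top ~1%) using anti-HA fluorescence for expression and streptavidin fluorescence for binding of the Sf9 membrane reagent. Each polyreactivity label is drawn from the gate of origin.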

Sequence | polyreactivity (PSR sort gate)
QVQLVESGGGLVQAGGSLRLSCAASGIIFQRNDMGRYRQAPGKERELVANIRDGGITYADSVKGRFTISRDNAKNTVYLQMNSLKPEDTAVYYCARDDTSPGYGDQSSNAAYYYWGQGTQVTVSS | low polyreactivity
QVQLVESGGGLVQAGGSLRLSCAASGSTFYYNAMGWYRQAPGKERELVAVITLNGGRTSYADSVKGRFTISRDNAKITVYLQMNSLKPEDTAVYYCAADRYRGYGYWGQGTQVTVSS | low polyreactivity
QVQLVESGGGLVQAGGSLRLSCAASGRIFSGYAMGWYRQAPGKERELVAAITSVGSTNYADSVKGRFTISRDNAKYTVYLQMNSLKPEDTAVYYCAKDTGQGYYWGQGTQVTVSS | high polyreactivity
QVQLVESGGGLVQAGGSLRLSCAASGIIYWDYAMGWYRQAPGKEREYVAAINTSGGTTTYADSVKGRFTISRDNAKNTVYFQMNSLKREDTAVYYCAADPWVYYSYAYYSWGQGTQVTVSS | low polyreactivity
QVQLVESGGGLVQAGGSLRLSCAASGGMGWYRQAPGKERELVATISSVGSTNYADSVKGRFTISRDNAKNTVYLQMNSLKPEDTAVYYCAADYGSDYTKGDYWGQGTQVTVSS | low polyreactivity
QVQLVESGGGLVQSRVSLRLSCAASGRTIYVNAMGWYRQAPGKEREFVATISGGGSTKYADSVKGRFTISRDNAKNTVYLQMNSLKPEDTAVYYCARRRERYTADSRGYGYWGQGTQVTVSS | low polyreactivity
QVQLVESGGGLVQAGGSLRLSCAASGSTFGFNAMGWYRQAPGKERELVASITSGDSTYYADSVKGRFTISRDNAKNTVYLQMNSLKPEDTAVYYCAKVGGGGQAGDNPILSDYWGQGTQVTVSS | low polyreactivity
QVQLVESGGGLVQAGGSLRLSCAASGSISTVNVMGWYRQAPGKERELVAAISSGTSTHYADSVKVRFTISRDNAKNTVYLQMNSLKPEDTAVYYCAAYFYRQYLYFLYEYDYWGQGTQVTVSS | low polyreactivity
QVQLVESGGGLVQAGGSLRLTCAASGRIFTRYAMGWYRQAPGKERELVAAISYGGGGTYYADSVKGRFTISRDNAKNTVYLQMNSLKPEVTSVYYCAADPGYYSWGSSQDDYWGQGTQVTVSS | low polyreactivity
QDQLVESGGGLVQAGGRLRLSCAASGFTFHKYAMGWSRPAPGKDRELVAAITSSGGSTYYADSVKGRFTISRDYAKNTVYLQMTSLKPEDTAVYYCNARGGGRKSYDYWGQGTQVTVSS | high polyreactivity
QVQLVESGGVLVQAGGSLRLSCAASGSTLGGNAMGWYRQAPGKEMELVAAITSSAGSTYYADSVKGRFTISRDNAKNTVYLQMNSLKPEDTAVYYCDADYSRDEYDYWGQGTQVTVSS | low polyreactivity
QVQLVESGGGLVQAGASLRLSCAASGSIFRVYAMGWYRQAPGKERELVATIDTSTDSTYYADSVKGRFTISRDNAKNTVYIQMNSLKPEDTAVYYCNARGTYARYFQYDYSGQGTQVTVSS | low polyreactivity
QVQLVESGGGLVQAGGSLRLSCAASGLTFPDNAMGWYRQAPGKERELVAAITIDGSTYYADSVKGRFTISRDNAKNTVYLQMNSLKPEDTSVYYCNALVGVPYAMYYWGQGTQVTVSS | low polyreactivity
QVQLVESGGGLVQAGGSLRLSCAASGRIFTHNAIGWYRQAPGKERELVAGISYGGGSTYYADSVKGRFTISRDNAKITVYLQMNSLKPEDTAVYYCIAYIYDTYYWGQGTQVTVSS | low polyreactivity
QVQLVESGGGLVQAGGSLRLSWAASGSIFGWYGMGWYSPAPGKERELVAAITRGGSTYYADSVKGRFTISRDNAKNTVYLQMNSLKPEDTAGYYCAKRSGQQYGGYGYWGQGTQVTVSS | low polyreactivity
QVQLVESGGGLVQAGGSLRLSCAASGGIFPHYVMGWYRQAPGKERELVAAITWSGGRTYYADSVKGRFTISRDNAKNTVYLQMNSMKPEDTAVYYCAADPFYLTKSGGWGDYWGQGTQVTVSS | low polyreactivity
QVQLVESGGGLVQAGGSLRLSCAASGFTFVSYAMGWSRQAPGKERELVATITSDGSTNYADSVKGRFTISRDNAKNTVYLQMNSLKPEDTAVYYCAADIHYYPGYLAYDYWGQGTQVTVSS | low polyreactivity
QVQLVESGGGLVQAGGSLRLSCAASGRTITRNAMGWYRQAPGKERELVAAITTTGGSTYYADYVKGRFTISRDNAKNTVYLQMNSLKPEDNAVYYCNADWVGPFRRATNITTYFGYDYWGQGTQVTVSS | low polyreactivity
QVQLVESGGGLVQAGGSLRLSCPASGRTFRYYAMGWYRQAPGKERELVAAITANGGSTFYADSVKGRFTISRDNAKNTVYLQMNSLKPEDTAVYYCAARFYTSSRYNYWGQGTQVTVSS | high polyreactivity
QVQLVESGGGLVQAGGSLRLSCAASGTTFSPNAMGWYRQAPGKERELVAAIRGSGSRTYADSVKGRFTISRDNAKNSVYLQMNSLKPEDTAVYYCAAEWIYDTDYWYYSYYYWGQGTQVTVSS | low polyreactivity
QVQLVESGGGLVQAGGSLRLSCAASGFTFYLYTMGWYRQAPGKERELVATITSDGGTNYADSVKGRFTISRDNAKNTVYLQMNSLKPEDTAVYYCNAASRRGSRKQAKYDFWGQGTQVTVSS | low polyreactivity
QVQLVESGGGLVQAGGSLRISCAASGSTFGYNDMGWYRQAPGKERELVAAIDTGVSTNYADSVKGRFTISRDNAKNTVYLQMNSLKPEDTAVYYCAKSGSAYWHSGWSVGFDYWGQGTQVTVSS | low polyreactivity

Sequence | polyreactivity (PSR sort gate)
QVQLVESGGGLVQAGGSLRLSCAASGRTFFGNAMGWYRQAPGKERELVAVISQGGGSTYYADSVKGRFTISRDNAKNTVYLQMNSLKPEDTAVYYCAKRYPHVGSGQLGGTYNYWGQGTQVTVSS | low polyreactivity
QVQLEESGGGIVQAGGSLRLSCAASGITFRFYAMGWYRPAPGKERELVAAITRSGSSTYYADSVKGRFTISRDNAKNTVYLQMNSLKPEDTAVYYCATDPYWNRPYVKYDYWGQGTLVTVSS | high polyreactivity
QVQLVESGGGLVQAGGSLRLSCAASGRIFGYYPKGCYRPAPGKERELVAAISSGGNTNYADSVKGRFTISRDNAKKTVYLQMNSLKPEDTAVYYCSAYHFSFGWIRVDYWGQGTQVTVSS | high polyreactivity
QVQLVESGGGLVQAGGSLRLSCAASGSIFYLNAMGWYRQAPGKERELVAAISKRGSRTYYADSVKGRFTISRDNAKNTVYLQMNSLKPEDTAVYYCNALDTPGYNTEPARQYDHWGQGTQVTVSS | high polyreactivity
QVQLVESGGGLVQAGGSLRLSCAASGRIFLLNAMGWYRQAPGKERELVARISSGRTYYADSVKGRFTISRDNAKNTVFLQMISLKPEDTAVYYCNATVSSSKFRYFYVNPYDYWGQGTQVTVSS | low polyreactivity
QEQLQESGGGLVQAGGSLRLSCAASGSISGSSTMGWYRQAPGKERELVASIAVGANTNYADSAKGRFTISRDNAKNTVYLQMNSLKPEDTAVYYCAVDYYIYYFHYWGQGTQVTVSS | high polyreactivity
QVQLVESGGGLVQAGVSLRLSCAASGTFFGYAMGWYRQAPGKERELVASITSGDSTNYADSVKGRFTISRDNAKKTVYLQMNSLKPEDTAVYYCNADRFADYDYWGQGTQVTVSS | low polyreactivity
QVQHVESGGGLVQAGVSLRLSCAASGSTFRRYAMGWYRQSRGKERELVATISSRGGSTNYADSVKGRFTISRDNAKNTVYLQMNSLNPEDTSFYYCARSTSLVTKDDYWGQGTQVTVSS | high polyreactivity
QEQLVESAGGLVQAGGSLRLSCAASGSTFYRYAMGWNRQAPGKERELVAAITSSGGSTYYADSVKGRFTISRDNAKNTVYLQMNRLKPEDTAVYYWNAVRRRQSDYWGQGTQVTVSS | high polyreactivity
QVQLVESGGGLVQAGGSLRLSCAASGSTFDIYVMGWYRQAPGKERELVAAISRVGNTSYADSVKGRFTISRDNAKNTVYLQMNSLKPEDTAVYYCAADAPSWYDRQYDYWGQGTQVTVSS | low polyreactivity
QVQLVESGGGLVQAGGSLRLSCAASGSTIRQNAMGWSSQAPGKEMELVAAITYTGGSTYYADSVKGRYTISRDNAKNTVYLEMNSLKPEDTSVYYCAATYLSYYHGWVNYWGEGTQVTVSS | high polyreactivity
QVQLVESGGGLVLAGGSLRLSCAASGSTFARNAMGWYRHAPGKERELVAAISWNGGRTYYADSVKGRFTISRDNAKNTVYLQMNSLKPEDTAVYYCAAKYVKDYWSDFDYWGQGTQVTVSS | high polyreactivity
QVQLVESGGGLVQAGGSLRLSCAASGSIFRSNDMGWYRKAPGKERELVARITSSVGSTYYADSVKGRFTISRDNAKNTVYLQMNSLKPEVTAVYYCAKRYYHYPYGYRDYDYWGQGTQVTVSS | low polyreactivity
QVQLVESGGGLGQAGGSLRLSCADSGRTFYKYAMGWYRQSPGKERDLVAAISGSGGSTFYADSVKGRFTISRDNAKNTVYLQMNSLKPEDTAVYYCAKYLRPRIGYRYYYWVQGTQVTVSS | high polyreactivity
QVQLVESGGGLVQAGGSLRLSCAASGRIYRYYAMGWYRQAPGKEREFVAAISYRGASTFYADSVKGRFTISRDNAKNTVYLQMNSLKPEDTAVYYCATDTRIRYQGNPYDYWGQGTQVTVSS | high polyreactivity
QVQLVESGGGLVQAGGSLRLSCAASGPTFLYNAMGWYRQAPGKERELVAAISRSAVSTYYADSVKGRFTISRDNAKNTVYLQINSLKPDDTAVYYCSADYRGRYATYRSYASVLYDYWGQGTQVTVSW | low polyreactivity
QVQLVESGGGLVHAGGSLRLSCASSGSTFFTNAMGWYRQAPGKERELVAAITINDGSTFYADSVKGRFTISRDNAKNTVYLQMNSLNPEDTAVYYCNADGVDLYDYWGQCTQVTVSS | low polyreactivity
QVQLVESGGGLVQAGGSLRISCAASGSTFTINVMGWYTQAPGKERELVAAINGGGRTNYADSVKGRFTISRDNAKNTVYLQMNSLIPEDSAVYYCAADGLSIVRQMDYWGLGTQVTVSS | low polyreactivity
QVQLVESGGGLVQAGGSLRLSCAASGGIFIKYAIGWYRPAPGKERELVAAITYSGGSTYYADSVKGRFTISRDNAKNTVYLQMNCLKPEDTAVYYCAADTLRQYDYEYWGQGTQVTVSS | high polyreactivity
QVQLVESGGGLVQAGGRLRLSCAASGSIFRRYAMGWYRQEPGKERELVAVITTDGSTYYADSVKGRFTISRDNAKNTVYLQMNSLKPEDTAVYYCAAEVYVIGDSGYDYWGQGTQVTVSS | low polyreactivity
QVQLVESGGGLVQAGGSLRLSCAASGSIFGPYAMGWYRQAPGKERELVAAISLGGGSTSYADSVKGRFTISRDNAKNTVYLQMNSLKPEDTAVYYCATEDFRTDTGMYYWGQGTQVTVSS | low polyreactivity
